Experiment: yeast display, Sf9 membrane polyspecificity reagent, FACS + sequencing; frameworks hold sequencing errors
How it was run: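 Nanobodies came from a synthetic yeast display library in Saccharomyces cerevisiae BJ5465, induced with galactose for 36–48 hours and stained for 1 hour at 4 °C with 10% biotinylated, detergent-solubilized Sf9 membrane reagent. Cells were enriched on streptavidin microbeads and then FACS-sorted, with low and high (top ~1%) gates set on anti-HA fluorescence for expression and streptavidin fluorescence for reagent binding. Each polyreactivity label reflects the gate a clone came from. Genes were amplified by colony PCR, sequenced by MiSeq 2 × 250 and filtered by CDR length.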

Sequence	polyreactivity (PSR sort gate)
QVQLVESGGGLVQAGGSLRLSCAASGSIFYTNVMGWYRQAPGKERELVAAISSSGDRTYYADSVKGRFTISRDNAKNTVYLQMNSLKPEDTAVYYCAAQSYRSRYYYWGQGTQVTVSS	high polyreactivity
QVQLVESGGGLVQAGGSLRLSCAASGSISYLYAMGWYRQAPGKERELVAAISRSGASTYYADSVKGRFTISRDNAKNTVYLQMNSLKPEDTAVYYCAAYKIWGRVRYDYWGQGTQVTVSS	low polyreactivity
QVQLVESGGGLVQAGGSLRLSCAASGSIFRWYAMGWYRQAPGKERELVAAITSGGSTYYADSVKGRFTISRDNAKNTVYLQMNSLKPEDTAVYYCNAAKLASHTYDYWGLGTQVTVSS	low polyreactivity
QVQLVESGGGLVQAGGSLRLSCAASGFIFLVYAMGWYRQAPGKERELVAAISASGGRTYYADSVKGRFTISRDNAKNTVYLQMNSLKPEYTAVYYCARLLPTPGKPILDYWGQGTQVTVSS	low polyreactivity
QVQLVESGGGLVQAGGSLRLSCAASGRTFFRNAMGWYRQAPAKERELVAGISRSGGSTYYADSVKGRFTISRDNAQNTFSLEMNSLKPEDSAVYYFAAALYPYPGYEYWGQGTQVTVSS	high polyreactivity
QVQHVESVGGLLQAGGSLPLSCASSGSTFTGYAMGRYREAPGIVRELVAAISSSGGRTYYADSVKGRFTISRDNAKNTVYLQMNSLKPEDTAVYYCAVRPRYRPSGYVEYDSWGQSTQVTVSS	high polyreactivity
QVQLVESGGGLVQAGGSLRLSCAASGSTISFYAMGWYRQAPGKERELVAAISRSGGSTFYADSVKGRFTISRDNAKNTVYLQMNSLKPEDTAVYYCAAYGGMQSRYYYWGQGTQVTVSS	high polyreactivity
QVQLVESGGGLVQAGGSLRLSCAASGSIFQRYAMGWYRQAPGKEREFVAAISGRGGSTYYADSVKGRFTISRDNAKNTVYLQMNSLKPEDTAVYSCAADSSRFYGRPRYYYWGQGTQVTVSS	high polyreactivity
QVQLVESGGGLVQAGGSLRLSCAASGRIFGQYAMGWYRQAPGKERELVAAISWRGGTTYYADSVKGRFTISRDNAKNTVYLQMNSLKPEDTAVYYCNADVWVYPYDYWGQGTQVTVSS	low polyreactivity
QVQLVESGGGLVQAGGSLRLSCAASGYIFYANAMGWYRQAPGKERELVASISTGGNTNYADSVKGRFTISRDNAKNTVYLQMKSLKPEDTAVYYCAVRSTVPYLWRTPVTRDYWGQGTQVTVSS	low polyreactivity
QVQLVESGGGLVQAGGSLRLSCAASGRIFYSYAMGWYRQAPGKERELVAAISFSVGSTYYADSVKGRFTISRDNAKNTVYLQMNSLKPEDTAVYYCATGWYYTSTTYRSSDFDYWGQGTQVTVSS	low polyreactivity
QVQLVESGGGLVQAGGSLRLSCAASGSTFGSNAMGWYRQAPGKERELVAAITYSGGRTYYADSVKGRFTISRDNAKNTVYLQMNSLKPEDTAVYYCAATFGFFYYQYDYWGQGTQVTVSS	low polyreactivity
QVQLVESGGALVQAGGSLRLSCAASGSILDPKAMGWYRQAPGKERELVASISRGDNTYYADSVKGRFTISRDNAKNTVYLQMNSLKPEDSAVYYCAADYSWVVWHDYWGQGTQVTVSS	low polyreactivity
QVQLVESGGALVQAGGSLRLTCAYSGSTSYNNAMGWYRHAPGKERELYASLYMSAGSTYYADSVKGRFKISRDNEKNTVYLQMNSLKPEDTAVYYCAAESVAILGLVDPKGYGYWGQGTQVTVSS	low polyreactivity
QVQLVESGGGLVQAGGSLRLSCAASGRSFSGYAMGWYRQAPGKERDLVAAITSSGGRTYYADSVKGRFTISRDNAKNTVYVQMNSLKPEETAVYYSAAMRPGYRPQGLDYWGQGTQVTVSS	low polyreactivity
QVLLVESGGGLVQAGGSLSISCAASGSTFGYYPMGWYRQAPGKEREFVAAISSRDGSTFYADSVQGRFTISRDNAKNTVYLQMNSLKPEDTAVYYCAKVFFHTPIVPEYDYWGQGTQVTVSS	low polyreactivity
QVQLQESGGGLVQAGGSLRLSCAPSGTITVLYKMGWFRQAPGKEGEFVASINYGTSTYYADSVKGRFTVSRDRAKNTVYLQMNSLKPEDTAVYYCAAAYRWQDVYRYWGQGTQVTVSS	low polyreactivity
QVQLVESGGGLVQAGGSLRLSCAASGSTFRVYAMGWYRQAPGKERELVAAISWSGGRTYYADSVKGRFTISGDNAKNTVYLQMNSLKTEDTAVYYCAADTYGRYDYWGQGTQVTVSS	high polyreactivity
QVQLGESGGGLVQAGGSLRLSCAASGSTFYVYAQGWYRPAPGKERELVAAISSSGARTYYADSVKGRFTISRDNAKNTVYLQMNCLKPDDTAVLYCAARRYYKFYYWGHGTQVTVSS	high polyreactivity
QVQLVESGGGLVQAGGSLRLSCAASGFTFSSYYMGWYRQAPGKERELVAAITSSGDDTYYADSVKGRFTISRDNAKNTVYLQMNSLKPEDTAVYYCAAEYTEGYTHDYGGQGTQVTVSS	low polyreactivity
QVQVEESGGGFDQAGGSLRLSCAASGSIFYYNAMGWYRQAPGKERELVAAISGRTGSTYYADSVKGRFTISRDNAKNTVYLQMNSLKPEDTAVYYCNALFLGYYYYWGQGTQVTVSS	high polyreactivity
QVQHVESGGGIVQAGGSLRLSCAASGITFDEYAMGWYRQAPGKEWELVATITWSGGSTYYADSVKGRFTISRVNAKNTVDLKMNSLKPEDSAVYYCAARDSGRYDDFGYWGQGTQVTVSS	low polyreactivity

Sequence	polyreactivity (PSR sort gate)
QVQLVESGGGLVHAGGCLRLSCAASGRTFAPYAMGWYRLAPGKERELVAAINSGDRTYYADSVKGRFTLSRDNAKNTVNLQINSLKPEDTSGYYCSSDALAGQYTWYKYDYWGQGSQVTVSS	low polyreactivity
QVQLVESGGGLVQAGGSLRLSCAASGYTFYYYAMGWYRQAPGKERELVAAISWSGGSTYYADSVKGRVTISRDNAKNTVYLQMNSLKPEDTAVYYCAAGVDLYYDLYDYEYWGQGTQVTVSS	low polyreactivity
QVQLVESGGGLVQAGGSLRLSCAASGSIFDANAMGWYRQAPGKEREVVAAISYRGGRTYYADSVKGRFTISRDNAKNTVYLQMNSLKPEDTAVYYCNAGISHRSDNGIDGYYWGQGTQVTVSS	high polyreactivity
QVQLVESGGGLVQEGGSLRLSCAASGSIFFYYAMGWYRPAPGKERELVAAIRSGTSTNYADSVKGRFTISLDNAKNTVYLQMNSLKPEDTAVYYCNKDTDWSWSAITSPIFDYWGQGTQVTVSS	low polyreactivity
QVQLVESGGGLVQAGGSLRLSCAASGFIFRYYAMGWYIQAPGKERELVAAITISGTRTYYADSVKGRFTISRDNAKNTVYLQMNSLKPEDTAVYYCAAYTSVRPKLDYWGQGTQVTVSS	high polyreactivity
QVQLVESGGGLVQAGGILRLSCAASGSTFAYNAMGWYRQEPGKERELFAAISWSGGTTYYADSVKGRFTISRDNAKTTVYLQMNSLKPEDTAVYYCNAVYYPSYQQVRAHDYWGQGTQVTVSS	high polyreactivity
QVQLVESGGGLVQAGGSLRLSCAASGRTFRLNVMGWYRQAPGKERELVATISWSGGTTYYADSVKGRFTISRDNAKNTVYFQMNCLKPEDTAVYYCNRQVTWYPTGGYWGQGTQVTVSS	low polyreactivity
QVQLVESGGGLVQAGGSLRLSCAASGFIFGTYAMGWYRQAPGKERELVAAISRSGGSTSYADSVKGRFTISRDNAKNTVYLQMNSLKPEDTAVYYCNKRLLRFPYWGYDYWGQGTQVTVSS	high polyreactivity
QVQLVESGGRLVQAGVSLRLSCAAGGRTFGINAMGWYRQAPGKERELVARIRKTVGSTYYADSVKGRFTISRDNAKNTVYLQMNSLKPEDTAVYYCNADYDAYPRYIRYGYWGQGTQVTVSS	high polyreactivity
QVQLVESGGGLVQAGGSLRLSCAASGRIFSVYTMGLYRQAPGKERELGAAISSGGRTYYADSVKGRFTISRDNAKNTVYLQMNSLKPEDTAVYYCAAGSHYAFYYWGQGTQVTVSS	high polyreactivity
QVQLVESGGGLVQAGGSLRLSCAASGSIFGLYAMGWYRQAPGKEREFVASITYSGGSTYYADSVKGRFTISRDNAKNTVYLQMTSLKPEDTAVYYCAAESYWGYDYWGQGTQVTVSS	high polyreactivity
QVQLVESGGCLVQAGGSLRLSCAASGSTFTYNAMGWYRQAPGKERELVAAISRTANANYADSVKGRFTISRDNAKNTVYLQMNSLKPEDTAVYYCADDFLDSKVHVRFGYWGKGTQVTVSS	low polyreactivity
QVQLVESGGGLVQAGGILRLSCAASGSTFGYYTMGWYRQAPGKEREFVAAITRRGGSTYYADSVKGRFTISRDNAKNTVYLQMNSLKPEDTAVYYCAAESRYQPHYGYWGQGTQVTVSS	high polyreactivity
QFQLVDSGGGLVQAGGSLSLICAASGLIFYTYAMGWYRQAPGKERELVAAISRTRVSTYYADSVKGRFTISRDNAKNTVYLQMNSLKPEYTAVYYCATSRYLKLGYDYWGQGTQVTVSS	high polyreactivity
QVQLVESGGGLVQAGGSLRLSCAASGRNITANAMGWYRQAPGKEREFVAAINVSGGSTYYADSVKGRFTISRDNAKNTVYFQMNSLKPEDTAVYYCNADYYYYDIYWWQMDYWGLGTQVTVSS	low polyreactivity
QVQLVESGGGLVQAGGSLRLSCAASGRTFQTNAMGWYRQAPGKVRELVAAISSTGGSTYYADSVKGRFTISRDNAKYTVYLQMNSLKPEDTAVYYCNAGRTYRYDYWGQGTQVTVSS	high polyreactivity
QVQLVESGGGLVQAGGSLRLSCAASGRIFGDNAMGWYRQAPGKERELVAGIRWRADRTYYADSVKWRFTISRDNAKNTVYLQMNSLKPEDTAVYYCNVGSFTGHSYGFGYWGQGTQVTVSS	low polyreactivity
QVQLVESGGGLVQAGGSLRLRCAASGRIFGRYAMGWYRQAPGKERELVASISRGGSTNYADSVKGRFTISLDNAKNTVYLQMNSLKPEDTAVFYFAKSGGVGGDDRVGSWGQGTQVTVSS	low polyreactivity
QVQLVESGGGLVQAGGSLRLSCAASGSTLWANAMGWYRQAPGKERELVAAISWRGGRTYYADSVKGRFTISRDNAKNTVYLQMNSLKPEDTAVYYCNAVSYYRPRSDYGGQGTQVTVSS	high polyreactivity
QDQLVESGGGLVQAGGSLRLSCAASGLIFIDYAMGWYRQAPGKERELVAAITRGGARTYYADSVKGRFTISRDNAKNTVYLQMNSLNPEDTAVYYCAADRPGSRYIDVDYWGQGTQVTVSS	high polyreactivity
QVQLVESGGGLVQAGGSLRLSCAASGSTFAYYAMGWYRKAPGKERELVAAISSGGSTYYADSVKGRFTISRDNAKNTVYLQMNSLKPEDTAVYYCNKLWVGKFKRYEFGYWGQGTQVTVSS	low polyreactivity
